# Measurements taken from publication PMC2756588.
# T1: Pex13, P80667
# T1 sequence (P80667 295-386, looked up): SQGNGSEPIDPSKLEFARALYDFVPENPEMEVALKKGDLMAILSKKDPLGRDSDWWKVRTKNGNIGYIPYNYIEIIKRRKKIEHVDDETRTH
# T2: Nbp2, Q12163
# T2 sequence (Q12163 103-180, looked up): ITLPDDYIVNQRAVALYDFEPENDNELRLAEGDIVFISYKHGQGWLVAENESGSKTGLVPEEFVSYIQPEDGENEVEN
# T3: Boi2, P39969
# T3 sequence (P39969 32-116, looked up): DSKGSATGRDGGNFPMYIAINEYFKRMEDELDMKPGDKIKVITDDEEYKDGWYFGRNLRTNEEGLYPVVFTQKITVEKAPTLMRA
# T4: Lsb4, P32793
# T4 sequence (P32793 402-468, looked up): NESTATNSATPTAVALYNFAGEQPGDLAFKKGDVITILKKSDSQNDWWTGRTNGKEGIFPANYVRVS
# T5: Bbc1, P47068
# T5 sequence (P47068 1-78, looked up): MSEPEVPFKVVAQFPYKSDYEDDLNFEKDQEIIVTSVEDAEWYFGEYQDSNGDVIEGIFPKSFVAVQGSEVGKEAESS
# T6: Sla1-3, P32790
# T6 sequence (P32790 344-424, looked up): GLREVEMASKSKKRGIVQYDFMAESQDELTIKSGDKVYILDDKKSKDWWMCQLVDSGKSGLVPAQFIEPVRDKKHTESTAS
# T7: Bzz1-1, P38822
# T7 sequence (P38822 478-572, looked up): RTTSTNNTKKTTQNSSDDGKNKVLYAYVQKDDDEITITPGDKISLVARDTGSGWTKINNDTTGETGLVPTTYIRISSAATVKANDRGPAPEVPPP
# T8: Abp1, P15891
# T8 sequence (P15891 535-592, looked up): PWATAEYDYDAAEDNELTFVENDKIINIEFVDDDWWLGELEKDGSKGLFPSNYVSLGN
# T9: Boi1, P38041
# T9 sequence (P38041 1-86, looked up): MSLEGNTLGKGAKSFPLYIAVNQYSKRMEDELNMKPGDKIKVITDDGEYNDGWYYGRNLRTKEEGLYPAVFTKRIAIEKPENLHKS
# T10: Cyk3, Q07533
# T10 sequence (Q07533 1-83, looked up): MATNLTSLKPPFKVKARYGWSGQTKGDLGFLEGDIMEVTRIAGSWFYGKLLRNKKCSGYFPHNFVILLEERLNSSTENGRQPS
# T11: Pin3, Q06449
# T11 sequence (Q06449 53-122, looked up): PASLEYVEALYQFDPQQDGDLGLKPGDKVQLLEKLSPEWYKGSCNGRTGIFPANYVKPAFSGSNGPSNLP
# T12: Sla1-2, P32790
# T12 sequence (P32790 60-140, looked up): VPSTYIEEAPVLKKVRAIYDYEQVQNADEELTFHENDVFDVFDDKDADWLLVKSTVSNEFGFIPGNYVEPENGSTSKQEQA
# T13: Myo5, Q04439
# T13 sequence (Q04439 1072-1160, looked up): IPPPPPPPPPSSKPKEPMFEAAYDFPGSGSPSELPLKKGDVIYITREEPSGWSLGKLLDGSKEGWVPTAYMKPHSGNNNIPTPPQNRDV
# T14: Cdc25, P04821
# T14 sequence (P04821 50-136, looked up): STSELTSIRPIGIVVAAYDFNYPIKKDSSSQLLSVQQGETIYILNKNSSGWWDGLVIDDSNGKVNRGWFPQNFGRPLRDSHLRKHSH
# T15: Lsb3, P43603
# T15 sequence (P43603 385-451, looked up): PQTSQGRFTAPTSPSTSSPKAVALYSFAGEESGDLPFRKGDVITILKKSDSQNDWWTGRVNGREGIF
# T16: Bzz1-2, P38822
# T16 sequence (P38822 568-633, looked up): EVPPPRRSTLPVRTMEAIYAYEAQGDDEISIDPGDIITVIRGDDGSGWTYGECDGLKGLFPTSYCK
# T17: Fus1, P11710
# T17 sequence (P11710 432-512, looked up): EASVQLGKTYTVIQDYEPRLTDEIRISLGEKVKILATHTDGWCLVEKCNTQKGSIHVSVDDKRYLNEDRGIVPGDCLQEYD
# T18: Lsb1, P53281
# T18 sequence (P53281 45-122, looked up): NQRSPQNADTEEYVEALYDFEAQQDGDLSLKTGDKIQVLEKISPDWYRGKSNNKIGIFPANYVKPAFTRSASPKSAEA
# T19: Hof1, Q05080
# T19 sequence (Q05080 590-669, looked up): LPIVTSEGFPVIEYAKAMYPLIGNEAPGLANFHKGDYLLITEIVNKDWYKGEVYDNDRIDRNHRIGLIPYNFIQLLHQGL
# T20: Bud14, P27637
# T20 sequence (P27637 247-328, looked up): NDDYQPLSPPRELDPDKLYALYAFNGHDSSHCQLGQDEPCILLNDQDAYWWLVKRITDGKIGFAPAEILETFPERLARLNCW
# T21: Hse1, P38753
# T21 sequence (P38753 208-285, looked up): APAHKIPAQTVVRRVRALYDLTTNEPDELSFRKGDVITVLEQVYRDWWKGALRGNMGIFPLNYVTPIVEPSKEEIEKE
# Tests used:
# Assay in all cases: SPOT array
# [1] = target: T1, Pex13, P80667; settings: median of control spots 1341
# [2] = target: T2, Nbp2, Q12163; settings: median of control spots 357
# [3] = target: Bem1-2, P29366; settings: median of control spots 4347
# [4] = target: T3, Boi2, P39969; settings: median of control spots 1161
# [5] = target: T4, Lsb4, P32793; settings: median of control spots 397
# [6] = target: T5, Bbc1, P47068; settings: median of control spots 796
# [7] = target: T6, Sla1-3, P32790; settings: median of control spots 5475
# [8] = target: Rvs167, P39743; settings: median of control spots 2707
# [9] = target: Sho1, P40073; settings: median of control spots 1148
# [10] = target: Myo3, P36006; settings: median of control spots 468
# [11] = target: T7, Bzz1-1, P38822; settings: median of control spots 4446
# [12] = target: T8, Abp1, P15891; settings: median of control spots 935
# [13] = target: T9, Boi1, P38041; settings: median of control spots 1162
# [14] = target: T10, Cyk3, Q07533; settings: median of control spots 1451
# [15] = target: T11, Pin3, Q06449; settings: median of control spots 2171
# [16] = target: T12, Sla1-2, P32790; settings: median of control spots 712
# [17] = target: T13, Myo5, Q04439; settings: median of control spots 471
# [18] = target: T14, Cdc25, P04821; settings: median of control spots 969
# [19] = target: GST; settings: median of control spots 978
# [20] = target: T15, Lsb3, P43603; settings: median of control spots 406
# [21] = target: T16, Bzz1-2, P38822; settings: median of control spots 4538
# [22] = target: T17, Fus1, P11710; settings: median of control spots 1200
# [23] = target: T18, Lsb1, P53281; settings: median of control spots 388
# [24] = target: T19, Hof1, Q05080; settings: median of control spots 4086
# [25] = target: T20, Bud14, P27637; settings: median of control spots 956
# [26] = target: Bem1-1, P29366; settings: median of control spots 4282
# [27] = target: T21, Hse1, P38753; settings: median of control spots 1727
# Sequence of Bem1-1, P29366 (P29366 55-141): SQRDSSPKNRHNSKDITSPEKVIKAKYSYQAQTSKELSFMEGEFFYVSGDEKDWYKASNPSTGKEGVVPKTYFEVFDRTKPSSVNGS
# Sequence of Bem1-2, P29366 (P29366 139-227): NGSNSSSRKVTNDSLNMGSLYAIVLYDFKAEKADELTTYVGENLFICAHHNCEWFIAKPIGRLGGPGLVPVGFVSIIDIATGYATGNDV
# Sequence of Sho1, P40073 (P40073 287-367): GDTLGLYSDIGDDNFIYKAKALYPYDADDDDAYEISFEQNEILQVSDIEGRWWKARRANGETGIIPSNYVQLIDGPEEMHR
# Sequence of Rvs167, P39743 (P39743 419-482): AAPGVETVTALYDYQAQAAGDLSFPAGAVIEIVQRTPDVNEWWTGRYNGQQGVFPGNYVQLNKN
SPOT intensity [1],SPOT intensity [2],SPOT intensity [3],SPOT intensity [4],SPOT intensity [5],SPOT intensity [6],SPOT intensity [7],SPOT intensity [8],SPOT intensity [9],SPOT intensity [10],SPOT intensity [11],SPOT intensity [12],SPOT intensity [13],SPOT intensity [14],SPOT intensity [15],SPOT intensity [16],SPOT intensity [17],SPOT intensity [18],SPOT intensity [19],SPOT intensity [20],Binder,further results
14,240,65,3,49,362,379,4,178,51,8,235,8,4,12,4,5,30,4,30,RKNRAPPQRPRFNRE,SPOT intensity [21]: 77; SPOT intensity [22]: 14; SPOT intensity [23]: 390; SPOT intensity [24]: 6; SPOT intensity [25]: 15; SPOT intensity [26]: 0; SPOT intensity [27]: 25
3,85,3,2,7,17,6,0,72,80,0,83,0,1,14,0,6,13,0,0,LKVTPGRRAPTISKI,SPOT intensity [21]: 1; SPOT intensity [22]: 0; SPOT intensity [23]: 0; SPOT intensity [24]: 0; SPOT intensity [25]: 8; SPOT intensity [26]: 1; SPOT intensity [27]: 0
11,0,43,0,2,6,21,0,28,1,0,27,2,1,25,0,1,10,0,0,IHTRRPSSTSQYLIR,SPOT intensity [21]: 7; SPOT intensity [22]: 233; SPOT intensity [23]: 0; SPOT intensity [24]: 11; SPOT intensity [25]: 4; SPOT intensity [26]: 9; SPOT intensity [27]: 22
10,490,104,7,75,535,353,2,262,61,11,298,12,12,9,3,3,40,4,68,RKNRAPPQRPRFNRD,SPOT intensity [21]: 91; SPOT intensity [22]: 26; SPOT intensity [23]: 670; SPOT intensity [24]: 8; SPOT intensity [25]: 18; SPOT intensity [26]: 0; SPOT intensity [27]: 23
